From paper PMC10819704, “Regulatory Role of GgaR (YegW) for Glycogen Accumulation in Escherichia coli K-12” (Microorganisms, 2024) come the findings set out here.

For one data set, the target named is GgaR (YegW) (Escherichia coli, UniProt P0ACM5). Description: gel shift assay: loss of GgaR-DNA complex. Format: binding. The note with it: 2.0 pmol GgaR, 0.5 pmol fbaB/yegT spacer DNA probe, 10-100 uM ADPG, 37 °C; effector (inducer) releasing the repressor from DNA. On the technique in general: A gel shift assay detects complexes by their altered migration in electrophoresis.

For data set [1], the target named is T1, GgaR (YegW) (Escherichia coli K-12 W3110) (UniProt P0ACM5).
T1 sequence: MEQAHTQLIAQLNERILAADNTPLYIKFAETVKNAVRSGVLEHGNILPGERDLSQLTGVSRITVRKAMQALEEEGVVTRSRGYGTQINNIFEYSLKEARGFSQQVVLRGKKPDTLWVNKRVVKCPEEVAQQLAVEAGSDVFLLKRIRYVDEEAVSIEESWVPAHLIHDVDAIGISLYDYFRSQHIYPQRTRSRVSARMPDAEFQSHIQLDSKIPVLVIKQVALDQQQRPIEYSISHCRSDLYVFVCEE
Description: EMSA. The note with it: EMSA: binding buffer composition and pH not given; 37 C, 30 min (+30 min with effector); 0.5 pmol probe; 5% PAGE, GelRed stain.

In the case of `Nc1ncnc2c1ncn2[C@@H]1O[C@H](COP(=O)(O)OP(=O)(O)O[C@H]2O[C@H](CO)[C@@H](O)[C@H](O)[C@H]2O)[C@@H](O)[C@H]1O` [ADPG, ADP-glucose], at GgaR (YegW), the “gel shift assay: loss of GgaR-DNA complex” value was “After adding increasing concentrations of ADPG, the complex of GgaR and the fbaB/yegT spacer”.

In the case of “AAATGGATATTAAAGTCATGCTCGGCCTGGATGCGCTGATCCTGCTGCGCGATAAAAACTTCCTCGTCTTTTTCTTCTGTTCATTCCTGTTTGCGATGCCACTAGCGTTCTATTACATCTTTGCCAACGGTTATCTGACCGAAGTTGGCATGAAAAACGCCACCGGCTGGATGACGCTCGGCCAGTTCTCTGAAATCTTCTTTATGCTGGCATTGCCGTTTTTCACTAAACGCTTTGGTATCAAAAAGGTATTATTGCTTGGTCTGGTCACCGCTGCGATCCGCTATGGCTTCTTTAT (double strand) [probe-5]”, in data set [1], the binding entry is “binds more weakly”.

With “AATCATAATCCTGGTCGTTACGGGCGAGTTTTTCCATCTTTTGGATGTTTTTTCAGCGTTTTCTGTTGGCTCGATTCATCAGAAAAAATGTTAGCGCGGTCAAGTTTTCACCGCAAAGGTATTTAAAAGGTATTATTAAGTGGTATTGTCATCGCGTACCTTACATTACCTGTCATGAAGGAATTAAAAGATGAAAACAACAGCAAAGCTGTCGTTCATGATGTTTGTTGAATGGTTTATC (double strand) [probe-2]”, the binding entry in data set [1] was “binds”.

On to “TTTCTGATGAATCGAGCCAACAGAAAACGCTGAAAAAACATCCAAAAGATGGAAAAACTCGCCCGTAACGACCAGGATTATGATTGCCCGCAAAAGGCGGGCCAGGACAATCCATAGCCGATATCCAATCGGAATTTACGGGAGCATAGTAATGACAGATATTGCGCAGTTGCTTGGCAAAGACGCCGACAACCTTTTACAGCACCGTTGTATGACAATTCCTTCTGACCAGCTTTATCTCCCCGGACATGACTACGTAGACCGCGTAATGATTG (double strand) [probe-1]”, for which the binding entry in data set [1] is listed as “no binding”.
